{"source": "the supplement of paper PMC9732359", "note": "± gives the uncertainty stated by the source."}
{"assay": "protein stability index of a GFP-peptide fusion (yeast GPS) (PSI 1-4); higher = more stable; sorted into four equal gates, so the index is relative within each strain", "conditions": "pdr5∆", "procedure,_shortened": "(§1)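 Tiled 17-residue peptides from yeast proteins were fused downstream of GFP on a plasmid that also expresses Cherry, and the pooled library was carried in yeast. Mid-log cultures grown in leucine-free medium were sorted into four equal gates by GFP/Cherry fluorescence ratio. Plasmids from each gate were PCR-amplified and Illumina-sequenced, and reads were assigned to strains by barcodes. Each peptide's protein stability index is the sum, over gates, of the gate's read frequency multiplied by its gate number.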"}
{"sequence": "VTQNVLGLEYIIRLLPI [SRB8]", "protein stability index": "1.68 ± 0.14"}
{"sequence": "VTYSDVGGCKDQIEKLR [RPT1]", "protein stability index": "3.67 ± 0.2"}
{"sequence": "VVAAAEDDDNEQHEEKA [QCR6]", "protein stability index": "2.98 ± 0.15"}
{"sequence": "VVDFTSLPEELKKRYDL [YMR129W/POM152]", "protein stability index": "2.33 ± 0.15"}
{"assay": "protein stability index of a GFP-peptide fusion (yeast GPS) (PSI 1-4); higher = more stable; sorted into four equal gates, so the index is relative within each strain", "conditions": "san1∆", "procedure,_shortened": "as §1"}
{"sequence": "VFLRNRLKYALNGREVK [RPS4A]", "protein stability index": "2.69 ± 0.086"}
{"sequence": "VFNDAHVLNKVTLASIL [RPN1]", "protein stability index": "2.45 ± 0.096"}
{"sequence": "VFVGTIFAGAFVFQTVF [QCR9]", "protein stability index": "1.23 ± 0.11"}
{"sequence": "VFYQVTPEDADEEEDDE [RPL22B]", "protein stability index": "2.63 ± 0.057"}
{"sequence": "VGASVVVVKNWGAETDE [RPS12]", "protein stability index": "3.29 ± 0.047"}
{"sequence": "VGDIVDIKANGSIQKGM [RPL21A]", "protein stability index": "1.62 ± 0.089"}
{"sequence": "VGKRVRYLVGGNKIQKV [RPS7A]", "protein stability index": "1.49 ± 0.26"}
{"sequence": "VGTAIDSILNYAKSEFD [ECM29]", "protein stability index": "2.92 ± 0.25"}
{"sequence": "VHTANFSERGSNTRTMT [MED2]", "protein stability index": "3.08 ± 0.14"}
{"sequence": "VICSVTGPIEPKARQEL [RRP46]", "protein stability index": "2.75 ± 0.051"}
{"sequence": "VIDIEIHVLEQDGGIMG [SKI6]", "protein stability index": "2.5 ± 0.11"}
{"sequence": "VINLKQIAKFVVGLGER [RPT1]", "protein stability index": "3.12 ± 0.3"}
{"sequence": "VISLGPNLATFISSGTS [YJL039C/NUP192]", "protein stability index": "2.36 ± 0.073"}
{"sequence": "VISMFVLPIFTTVFFSR [YML031W/NDC1]", "protein stability index": "1.17 ± 0.11"}
{"sequence": "VITPHFITNVQSISQNS [SWI1]", "protein stability index": "2.2 ± 0.14"}
{"sequence": "VIVTDPRSDAQAIKEAS [RPS0A]", "protein stability index": "2.92 ± 0.068"}
{"sequence": "VKEEKEDMETQASDPSK [RPC53]", "protein stability index": "3.2 ± 0.17"}
{"sequence": "VKFYEIFNFDQLVEITE [SRB8]", "protein stability index": "1.58 ± 0.14"}
{"sequence": "VKGLLNTYKRLVIGIFK [YJL039C/NUP192]", "protein stability index": "1.5 ± 0.11"}
{"sequence": "VKGRENELLLPSELNQL [RPC82]", "protein stability index": "3.35 ± 0.13"}
{"sequence": "VKHSPGAIKPFTPKLIY [ECM29]", "protein stability index": "2.87 ± 0.19"}
{"sequence": "VKLGLNSKMPTRFPPAV [PRP8]", "protein stability index": "2.85 ± 0.051"}
{"sequence": "VKLGNIWKESLIELSGG [SMC2]", "protein stability index": "2.12 ± 0.14"}
{"sequence": "VKLQMIKFGGLIIQKIP [ECM29]", "protein stability index": "1.48 ± 0.07"}
{"sequence": "VKNLSLMSCISVGTDPM [RPB2]", "protein stability index": "2.48 ± 0.058"}
{"sequence": "VKQLENVSSNIVKNAEQ [RPS20]", "protein stability index": "3.15 ± 0.049"}
{"sequence": "VKSLRQGKSKLIIIAAN [RPL30]", "protein stability index": "1.62 ± 0.22"}
{"sequence": "VKTKTIELIDYDKLPAG [RET1]", "protein stability index": "2.67 ± 0.19"}
{"sequence": "VLEDVYRCFAQLELRQL [RRI2]", "protein stability index": "2.5 ± 0.12"}
{"sequence": "VLEFCKDYEAKTKAMSL [POP1]", "protein stability index": "2.73 ± 0.037"}
{"sequence": "VLGNSRGVDAGKGNTFE [RPN14]", "protein stability index": "3.66 ± 0.11"}
{"sequence": "VLKADRSWNEPSKSQTN [YML103C/NUP188]", "protein stability index": "2.89 ± 0.097"}
{"sequence": "VLKVDKRFMNTSQNPQR [BRR2]", "protein stability index": "3.21 ± 0.069"}
{"sequence": "VLKVYSMINNSNQAVGQ [SRB8]", "protein stability index": "2.83 ± 0.067"}
{"sequence": "VLQEYRLTKQAFDWVLS [RPO21]", "protein stability index": "2.89 ± 0.073"}
{"sequence": "VLRLATNKGPLAQIWLA [MCD1]", "protein stability index": "1.51 ± 0.15"}
{"sequence": "VLVGSCAYTGTGDVLLI [RPN1]", "protein stability index": "3.41 ± 0.13"}
{"sequence": "VLYQSNATHDEDEFIVQ [SWP82]", "protein stability index": "3.11 ± 0.039"}
{"sequence": "VMEIGKDAEYLRNYLTP [PUP1]", "protein stability index": "2.77 ± 0.086"}
{"sequence": "VMGTPLTNMMSPMGNAY [PGD1]", "protein stability index": "1.62 ± 0.18"}
{"sequence": "VMMDVDSSGVNDLHHSE [RPN3]", "protein stability index": "3.35 ± 0.066"}
{"sequence": "VNARDIPPLNKSLAMEH [CSN12]", "protein stability index": "2.61 ± 0.19"}
{"sequence": "VNGSITDQLIQNIETRQ [NUT1]", "protein stability index": "3.05 ± 0.071"}
{"sequence": "VNIVEKDGAKFIEVRNF [RPL9A]", "protein stability index": "3.02 ± 0.2"}
{"sequence": "VNWLAYTYLYVRMLASP [BRR2]", "protein stability index": "1.31 ± 0.19"}
{"sequence": "VNYLISNTMYSVRLFSF [YJL039C/NUP192]", "protein stability index": "1.34 ± 0.088"}
{"sequence": "VPDSKIRIYDLGKKKAT [RPL10]", "protein stability index": "1.15 ± 0.13"}
{"sequence": "VPEFFQTANEKHITVRL [SRP14]", "protein stability index": "3.01 ± 0.12"}
{"sequence": "VPGMPAPIKKIIERYIK [PRP8]", "protein stability index": "2.95 ± 0.11"}
{"sequence": "VPGPGTKLIQYEHNGRT [CSL4]", "protein stability index": "3.25 ± 0.066"}
{"sequence": "VPIKSSKSGRIFALVFS [RPN13]", "protein stability index": "2.41 ± 0.096"}
{"sequence": "VPTLEAKRDYIISRLNA [FAS1]", "protein stability index": "3.05 ± 0.076"}
{"sequence": "VPTVPPSQSEEQKGQMA [MED4]", "protein stability index": "3 ± 0.067"}
{"sequence": "VPVKLEEIKTVDPASAP [RRP6]", "protein stability index": "2.87 ± 0.17"}
{"sequence": "VQDCRYSLASVTLKGAK [POP1]", "protein stability index": "2.61 ± 0.04"}
{"sequence": "VQIKDVNDRYQIPTPNN [CSI1]", "protein stability index": "1.75 ± 0.12"}
{"sequence": "VQISNIPDIGDLPDTEG [PRP8]", "protein stability index": "3.2 ± 0.049"}
{"sequence": "VQKSTKTFSYKRPSTFY [RPL20A]", "protein stability index": "3.06 ± 0.085"}
{"sequence": "VQLRYGDYDSHDISRYV [PRP8]", "protein stability index": "2.69 ± 0.075"}
{"sequence": "VQLSPSNPQHIIQPFLD [RGR1]", "protein stability index": "2.51 ± 0.063"}
{"sequence": "VQNSTLAQLTSKLIPEV [RPS1B]", "protein stability index": "2.27 ± 0.12"}
{"sequence": "VQPTIGQLPQLPKLNLP [SNF5]", "protein stability index": "2.49 ± 0.057"}
{"sequence": "VQQSEKLRNEVERIQKM [YIL149C/MLP2]", "protein stability index": "2.86 ± 0.2"}
{"sequence": "VQRQIEQQKGQQTAQTQ [SNF5]", "protein stability index": "3.3 ± 0.061"}
{"sequence": "VRCVNCSKSIPKDKAIK [RPS26A]", "protein stability index": "2.77 ± 0.063"}
{"sequence": "VRDVAAQDFINAYASFL [RPS19A]", "protein stability index": "2.96 ± 0.22"}
{"sequence": "VRFIGDSVAAIGIPVNK [QCR2]", "protein stability index": "2.4 ± 0.14"}
{"sequence": "VRKETYSSYIYKVLKQT [HTB2]", "protein stability index": "3.24 ± 0.051"}
{"sequence": "VRMRLAQLTHSLRRIRD [MED8]", "protein stability index": "1.49 ± 0.087"}
{"sequence": "VRNSFPLDEIPVDVDFN [REC8]", "protein stability index": "2.57 ± 0.078"}
{"sequence": "VRQKIKTLKRMIKESST [POP1]", "protein stability index": "1.45 ± 0.081"}
{"sequence": "VRVQFQFTGFLLHEMTQ [GRR1]", "protein stability index": "1.91 ± 0.074"}
{"sequence": "VSAAEDESLIRELYKYV [PRP28]", "protein stability index": "2.95 ± 0.084"}
{"sequence": "VSFDFNGVPGQALDAVR [MED8]", "protein stability index": "3.32 ± 0.079"}
{"sequence": "VSIKFTNAAFPFHDPEA [ECM29]", "protein stability index": "1.91 ± 0.068"}
{"sequence": "VSLIKKYKLISRIVEIF [YML103C/NUP188]", "protein stability index": "1.64 ± 0.067"}
{"sequence": "VSLVAEATSNTNSEDKL [MED4]", "protein stability index": "2.84 ± 0.082"}
{"sequence": "VSLVVNFQISKKMDDYI [PRP28]", "protein stability index": "2.38 ± 0.1"}
{"sequence": "VSMITDHNALPQRCTFA [POP1]", "protein stability index": "2.3 ± 0.18"}
{"sequence": "VSNLMGRNIGHPIIQDK [RPB3]", "protein stability index": "3.17 ± 0.053"}
{"sequence": "VSNPGDNPPPADNGEEY [MED2]", "protein stability index": "3.13 ± 0.074"}
{"sequence": "VSSESSDEAIIPVNKRR [SIR3]", "protein stability index": "3.02 ± 0.1"}
{"sequence": "VSTKTNEYRLAFYQVTP [RPL22A]", "protein stability index": "2.6 ± 0.056"}
{"sequence": "VSTRAIDLLWKGKTPKN [PRP28]", "protein stability index": "1.18 ± 0.12"}
{"sequence": "VTEDGTVVTVVSTAKFS [RPL22A]", "protein stability index": "2.2 ± 0.12"}
{"sequence": "VTFSVMPPKKSWRNITN [SMC4]", "protein stability index": "2.23 ± 0.19"}
{"sequence": "VTKILPHLIIQNHNSKS [IRR1]", "protein stability index": "1.16 ± 0.13"}
{"sequence": "VTLDFGNIFADLLPNSF [SMC2]", "protein stability index": "3.07 ± 0.07"}
{"sequence": "VTLVNGKRRMNPGPSVQ [RPS30A]", "protein stability index": "2.81 ± 0.047"}
{"sequence": "VTPIIDGIVVKNAVVRS [ARP7]", "protein stability index": "1.61 ± 0.13"}
{"sequence": "VTPTKTEVIIRATRTQD [RPS3]", "protein stability index": "2.57 ± 0.069"}
{"sequence": "VTQNVLGLEYIIRLLPI [SRB8]", "protein stability index": "1.39 ± 0.25"}
{"sequence": "VTYSDVGGCKDQIEKLR [RPT1]", "protein stability index": "2.92 ± 0.25"}
{"sequence": "VVDFTSLPEELKKRYDL [YMR129W/POM152]", "protein stability index": "2.96 ± 0.088"}
